Literature values, collected in article PMC4741438, “Targeting the SIN3A-PF1 interaction inhibits epithelial to mesenchymal transition and maintenance of a stem cell phenotype in triple negative breast cancer” (Oncotarget, 2015).

Tested on: PAH2
Details: in comparison to MAD
From the text: The PAH2 domain of SIN3 mediates interactions with a restricted subset of factors containing a conserved SIN3 interaction domain (SID) with homology to amino acids 5-24 of the prototypic PAH2-binding protein, the transcriptional repressor MAD [19-22]. […] Therefore, the use of small molecules based on in silico modeling of the MAD-SID sequence to prevent recruitment of the PF1-containing complexes represents a new and potentially clinically effective therapeutic strategy. While it cannot be ruled out that the effects of SID treatment act through inhibiting the interaction of additional PAH2-binding proteins with SIN3, the finding that PF1 kn ...

B1: PF1: plant homeodomain (PHD)-containing protein PF1 (PHF12) (protein)
chain: MWEKMETKTIVYDLDTSGGLMEQIQALLAPPKTDEAEKRSRKPEKEPRRSGRATNHDSCDSCKEGGDLLCCDHCPAAFHLQCCNPPLSEEMLPPGEWMCHRCTVRRKKREQKKELGHVNGLVDKSGKRTTSPSSDTDLLDRSASKTELKAIAHARILERRASRPGTPTSSASTETPTSEQNDVDEDIIDVDEEPVAAEPDYVQPQLRRPFELLIAAAMERNPTQFQLPNELTCTTALPGSSKRRRKEETTGKNVKKTQHELDHNGLVPLPVKVCFTCNRSCRVAPLIQCDYCPLLFHMDCLEPPLTAMPLGRWMCPNHIEHVVLNQKNMTLSNRCQVFDRFQDTVSQHVVKVDFLNRIHKKHPPNRRVLQSVKRRSLKVPDAIKSQYQFPPPLIAPAAIRDGELICNGIPEESQMHLLNSEHLATQAEQQEWLCSVVALQCSILKHLSAKQMPSHWDSEQTEKADIKPVIVTDSSVTTSLQTADKTPTPSHYPLSCPSGISTQNSLSCSPPHQSPALEDIGCSSCAEKSKKTPCGTANGPVNTEVKANGPHLYSSPTDSTDPRRLPGANTPLPGLSHRQGWPRPLTPPAAGGLQNHTVGIIVKTENATGPSSCPQRSLVPVPSLPPSIPSSCASIENTSTLQRKTVQSQIGPPLTDSRPLGSPPNATRVLTPPQAAGDGILATTANQRFSSPAPSSDGKVSPGTLSIGSALTVPSFPANSTAMVDLTNSLRAFMDVNGEIEINMLDEKLIKFLALQRIHQLFPSRVQPSPGSVGTHQLASGGHHIEVQRKEVQARAVFYPLLGLGGAVNMCYRTLYIGTGADMDVCLTNYGHCNYVSGKHACIFYDENTKHYELLNYSEHGTTVDNVLYSCDFSEKTPPTPPSSIVAKVQSVIRRRRHQKQDEEPSEEAAMMSSQAQGPQRRPCNCKASSSSLIGGSGAGWEGTALLHHGSYIKLGCLQFVFSITEFATKQPKGDASLLQDGVLAEKLSLKPHQGPVLRSNSVP
In the case of B1, the “affinity for PAH2, fold lower than MAD” value is listed as 10 fold.
